Measured values: the supplement of paper PMC12042874
± gives the uncertainty stated by the source.

Assay: amyloid nucleation score (Sup35N fusion, yeast selection) (log enrichment); library NNK2; higher = more nucleation; inactive = no reads after selection
In short: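 Random libraries were run with three technical output replicates. In each, psi-negative yeast expressing Sup35N fused to peptides of 20 random codons were induced 24 hours with 100 μM copper sulfate and grown 7 days at 30°C on medium lacking adenine and uracil, and input and output plasmid inserts were Illumina-sequenced. The nucleation score is the DiMSum log enrichment of output over input reads, centred on the mode score of non-aggregating sequences, and sequences under 100 input reads were excluded.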

Row | Substance | amyloid nucleation score
1 | LLSKGLA | -0.682 ± 0.32
2 | NSIIGCYRGFC | 4.63 ± 0.092
3 | CCRGLIRMLDCCNYRRK | 3.75 ± 0.067
4 | RCSDVTDFNKM | 0.122 ± 1.1
5 | KSYLWASAAVEGNCYNPVNR | -0.195 ± 0.48
6 | VWQVERVTIFLGFVKNLGLV | 2.68 ± 0.084
7 | YIVQWSFMVSRSQ | 1.62 ± 0.086
8 | SHRPWVWGQNISMKYRSVLK | 3.7 ± 0.057
9 | SLTTLCNLTIWDH | 0.756 ± 0.53
10 | CSMKYGCRVYVRNPSLSECD | 0.547 ± 0.45
11 | VNSLFLVVRYGG | 5.25 ± 0.05
12 | RFFGTTFYTAMMTRGFETVT | -0.139 ± 0.28
13 | FSVTMF | -0.197 ± 0.33
14 | WSLYHASERENIRPALTSIW | 0.325 ± 0.21
15 | LNGCSRILAFYMGCSCGGLM | -1.02 ± 0.76
16 | ATIGSLWRNYNERLFST | 4.06 ± 0.089
17 | TNIYLGMIVRVHLLFLMELA | -0.891 ± 1.1
18 | WSGQPGFSTYGICLLSVRLK | -0.286 ± 0.65
19 | DSGLSHSNQWVDFSEYPTRL | inactive
20 | NSLVLPDLAYLGCKMNLNFS | 3.94 ± 0.074
21 | RESGLRFNNYMMRWLHGGRV | -0.072 ± 0.29
22 | FFGTMV | -0.19 ± 0.37

Row | Substance | amyloid nucleation score
23 | KSLKCFHLVRFTFS | -0.492 ± 0.36
24 | DFLSGTMVDETSDKGISLLV | 0.605 ± 0.47
25 | KLGWTRLTPNVAHFHLIVGL | 0.583 ± 0.4
26 | QYVDWLLYGLRDCYWYRRVY | 0.192 ± 0.3
27 | LLPWGVTMVERLFIPIRCSD | 0.308 ± 0.35
28 | FRRFCQDILYICMRKDMVQG | 0.833 ± 0.8
29 | LVVNASLRWIRHWSKGF | 4.515 ± 0.035
30 | SIRRTLVGQRAHEGKFWYGV | -0.504 ± 0.63
31 | HVAESHMS | 1.16 ± 0.43
32 | STIEAGCTVVCA | 0.24 ± 0.49
33 | GRVFIASLIARTDPPKLVFK | 1.67 ± 0.083
34 | LRFYPW | 1.14 ± 0.36
35 | RVNCSFTDFVDVVIWKGRGN | 5.07 ± 0.089
36 | IVCLAVSLSSDRTE | 6.599 ± 0.04
37 | AVNGQGDS | -0.231 ± 0.43
38 | CLYRRLYKLALNMEIIILRY | inactive
39 | SMPPRLQSKLPRDFSAQSVK | 4.63 ± 0.1
40 | VACCFNSQYSEAI | 3.99 ± 0.076
41 | MDVGYCRNAVHRMLGMNCMM | 4.95 ± 0.062
42 | HRMRVSIGATYVTALYQVKD | 3.18 ± 0.095
43 | NYRMCFTLHSCYLIRSDNLS | inactive
44 | PAVDRIFSRLCTYSGQFIPQ | 4.66 ± 0.061

Row | Substance | amyloid nucleation score
45 | NQRHVIPNSIVLWWGELDLF | 0.465 ± 0.8
46 | IWTRLGYRQVPRYSAIFSAV | 0.136 ± 0.37
47 | HRTVRFP | inactive
48 | VHARYMIFWKWTILLHS | inactive
49 | NALVVLDMFLTIRSSVKGFI | inactive
50 | VQATGADVFWDW | -0.199 ± 0.76
51 | SGLEEYLSHLMLQVRFQESR | 0.432 ± 0.57
52 | PYSVMTFEIT | 0.486 ± 0.33
53 | LTIPDFRSGRRRVAQRDLVV | -0.157 ± 0.37
54 | LYMAFREMQSWQHCW | -0.227 ± 0.49
55 | SRICLLTYMGSIINRDVSVY | -1.6 ± 0.55
56 | NMIVYC | inactive
57 | LVIKCFCA | 6.476 ± 0.031
58 | GENTRSINVSSGMQEQSRKT | 0.523 ± 0.38
59 | HIIIFLWYRRHFSS | 1.78 ± 0.22
60 | GMLFRWCG | 7.56 ± 0.047
61 | RDQRLCV | -1.18 ± 1.1
62 | IFNWECMDAFFSLK | inactive
63 | VSSMHFFWF | -0.378 ± 0.54
64 | ARNWVHNCFWSHISFTSIA | 1.59 ± 0.13
65 | MFYFRFLKGTSQMIKAAMRS | -0.059 ± 0.49
66 | TYVVKLLIGWDLDAIFTVLS | 0.499 ± 0.37

Row | Substance | amyloid nucleation score
67 | NPHGMLSTRSGSVFMPTIDT | -0.742 ± 1
68 | KFKLLMTSRWDTFNVADTYD | 5.04 ± 0.042
69 | IGMCLILRNPYIVLSDRWSS | 0.308 ± 0.39
70 | CCCLSKHSNECGLRMDRPFT | 0.909 ± 0.6
71 | RTGRDFLSSIFFTSK | -1.8 ± 0.41
72 | PVIIAW | 0.14 ± 1
73 | TDVFCLDKSVQTRILTEVAT | -0.439 ± 0.41
74 | YFVCVASDGNMGIRYATR | inactive
75 | NWLLRG | 1.26 ± 0.37
76 | RFRRLSIIVILYTASRDLWR | 0.289 ± 0.41
77 | QSYWSWLKKVSRFVYPHTRS | 0.291 ± 0.26
78 | QCLTSRLGSKIVMCKSLDIS | 0.009 ± 0.23
79 | YRWDHILDVGSSFVL | 3.61 ± 0.064
80 | IVNTELVLVDKLDSCIVRYN | 3.02 ± 0.17
81 | GAGHNNLLEDAFTSRSVTAR | 0.489 ± 0.28
82 | WTHVHTRKDSLLSTGNCVPI | inactive
83 | STKVR | 1.3 ± 0.32
84 | TCVVIQGIRGWGWMSVSFMP | -0.829 ± 0.63
85 | IRRGTYNFLMFQKDSFEYVS | 0.536 ± 0.62
86 | SVTRRVSYRSYLVLVGEWKQ | 0.901 ± 0.32
